These results are taken from patent US20180016328A1 (WASHINGTON UNIVERSITY, published 2018).

The assay concerns the target T1, mouse tau (mouse, UniProt P10637-2 2-430, limits assumed).
T1 construct: also called mouse brain lysate comprising tau
The experiment in a line: Western blot of mouse brain lysate probed with the scFv (FIG. 4). The text has this:
FIG. 4 depicts Western blots showing that the scFv's detect human but not mouse tau. Mouse brain lysate comprising tau and recombinant human tau were both run on a gel and the scFv's SC1 (A) and SC3 (B) were used to detect tau. Recombinant human tau was detected by SC1 and SC3; mouse tau was not. Anti-vinculin Western blot was used as a loading control for tissue samples.
(In general: In western blotting, separated proteins are transferred to a membrane and probed.)

T1 sequence (P10637 other isoform, or with tags, fused parts or gaps limits assumed): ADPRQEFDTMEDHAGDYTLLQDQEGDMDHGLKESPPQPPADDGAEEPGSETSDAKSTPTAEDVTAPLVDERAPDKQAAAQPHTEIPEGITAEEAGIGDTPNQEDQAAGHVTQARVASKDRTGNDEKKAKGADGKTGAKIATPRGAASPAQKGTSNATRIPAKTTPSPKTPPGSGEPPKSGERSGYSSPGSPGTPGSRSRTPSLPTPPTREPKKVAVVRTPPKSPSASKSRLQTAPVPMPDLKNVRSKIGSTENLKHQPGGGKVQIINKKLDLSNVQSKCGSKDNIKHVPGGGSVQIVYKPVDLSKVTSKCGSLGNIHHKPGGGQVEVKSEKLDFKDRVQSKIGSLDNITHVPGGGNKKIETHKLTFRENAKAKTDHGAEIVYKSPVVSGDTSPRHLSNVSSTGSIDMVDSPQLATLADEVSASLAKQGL

B1: SC1 scFv HJ8.5 HA (scFv)
scFv: DIVLTQSPASLAVSLGQRATISCRASQSVSTSRYSYIHWYQQKPGQPPKLLIKYASNLESGVPARFSGSGSGTDFTLNIHPLEEEDAATYYCHHSWEIPLTFGAGTKLELKGGGSEVKVEESGGGLVQPGGSMKLSCVVSGFTFSNYWVNWVRQSPEKGLEWVAQIRLKSDNYATHYEESVKGRFTISRDDSKSSVYLQMNNLRAEDSGIYYCTNWEDYWGQGTTLTVSSYPYDVPDYA
notes: Encoded with an N-terminal secretory signal peptide (SP), left out here because the secreted protein was tested; also called HJ8.5 scFv SC1
As to B1, the binding result is on record as “no binding”.

B2: SC3 scFv HJ8.5 HA (scFv)
scFv: DIVLTQSPASLAVSLGQRATISCRASQSVSTSRYSYIHWYQQKPGQPPKLLIKYASNLESGVPARFSGSGSGTDFTLNIHPLEEEDAATYYCHHSWEIPLTFGAGTKLELKSGGGSGGGSGGGSEVKVEESGGGLVQPGGSMKLSCVVSGFTFSNYWVNWVRQSPEKGLEWVAQIRLKSDNYATHYEESVKGRFTISRDDSKSSVYLQMNNLRAEDSGIYYCTNWEDYWGQGTTLTVSSYPYDVPDYA
notes: Encoded with an N-terminal secretory signal peptide (SP), left out here because the secreted protein was tested; also called HJ8.5 scFv SC3
For B2, the binding result is “no binding”.
